Data: the Human Domainome abundance scans (Beltran et al. 2025)
± gives the uncertainty stated by the source.

B1: Gamma-crystallin S, residues 96 to 176; numbered along this chain, P22914 (parent)
chain: IQIFEKGDFSGQMYETTEDCPSIMEQFHMREIHSCKVLEGVWIFYELPNYRGRQYLLDKKEYRKPIDWGAASPAVQSFRRI

Variants of: B1
Assay: abundance fitness (aPCA) (normalised: wild type 0, dead -1); higher = more abundant; growth selection in yeast, the domain comes from the species named
Conditions: Homo sapiens

Abundance fitness of substitutions, site by site:
R51: D 0 ± 0.11 | A -0.004 ± 0.057 | Q -0.035 ± 0.066 | S 0.044 ± 0.056 | T 0.1 ± 0.088 | H 0.013 ± 0.1 | W -0.138 ± 0.065 | P -1.03 ± 0.17 | E 0.037 ± 0.072 | I -0.04 ± 0.083 | M 0.049 ± 0.077 | L -0.019 ± 0.044 | Y -0.166 ± 0.12 | K 0.008 ± 0.082 | G 0.062 ± 0.035 | V -0.026 ± 0.048 | N -0.264 ± 0.19
P65: Q 0.045 ± 0.35 | N -0.284 ± 0.34 | E -0.004 ± 0.28 | L -0.064 ± 0.12 | A 0.094 ± 0.11 | C -0.184 ± 0.2 | T 0.059 ± 0.19 | S -0.008 ± 0.2 | W -0.024 ± 0.16 | G -0.009 ± 0.14 | V 0.141 ± 0.083 | Y 0.199 ± 0.3 | R 0.033 ± 0.11
K59: T 0.089 ± 0.38 | I 0.026 ± 0.2 | G -0.133 ± 0.16 | W -0.084 ± 0.18 | E -0.31 ± 0.33 | V 0.119 ± 0.15 | P -0.229 ± 0.21 | A 0.012 ± 0.099 | H 0.323 ± 0.39 | C -0.104 ± 0.18 | M -0.136 ± 0.31 | D -0.153 ± 0.18 | F -0.107 ± 0.27 | Y -0.077 ± 0.19 | Q -0.022 ± 0.21
D67: T -0.262 ± 0.35 | E 0.069 ± 0.26 | Q -0.034 ± 0.28 | F -0.036 ± 0.31 | R 0.146 ± 0.12 | L -0.321 ± 0.15 | K -0.127 ± 0.22 | I 0.127 ± 0.3 | A 0.149 ± 0.2 | G -0.098 ± 0.19 | W 0.053 ± 0.18 | S 0.037 ± 0.11 | P -0.154 ± 0.12
E61: Q -0.05 ± 0.21 | S -0.358 ± 0.22 | L -0.135 ± 0.26 | N 0.035 ± 0.45 | M -0.028 ± 0.41 | W 0.086 ± 0.17 | H -0.205 ± 0.44 | V 0.084 ± 0.23
Y55: E -0.425 ± 0.37 | W 0.014 ± 0.18 | G -0.529 ± 0.25 | M -0.231 ± 0.25 | D -0.531 ± 0.24 | R 0.055 ± 0.18 | L -0.051 ± 0.21 | K -0.352 ± 0.29 | S -0.437 ± 0.18 | V -0.128 ± 0.23 | A -0.152 ± 0.25 | F 0.117 ± 0.16 | H 0.218 ± 0.32
Y62: W 0.281 ± 0.36 | N 0.002 ± 0.17 | S -0.129 ± 0.11 | P 0.177 ± 0.29 | A -0.099 ± 0.17 | V -0.184 ± 0.16 | F 0.16 ± 0.43 | C -0.162 ± 0.34 | G -0.075 ± 0.34 | M 0.116 ± 0.15 | H 0.117 ± 0.33 | T -0.174 ± 0.28
R63: W 0.065 ± 0.19 | L 0.133 ± 0.13 | Y -0.158 ± 0.34 | K -0.093 ± 0.21 | S -0.022 ± 0.16 | G 0.092 ± 0.14 | E -0.032 ± 0.14 | A -0.098 ± 0.23 | T -0.102 ± 0.42 | F -0.025 ± 0.31 | V -0.118 ± 0.13 | D -0.051 ± 0.37 | P -0.096 ± 0.46
Q54: P -0.168 ± 0.08 | R -0.013 ± 0.039 | I -0.045 ± 0.14 | Y -0.144 ± 0.096 | V -0.045 ± 0.039 | E -0.067 ± 0.092 | C -0.001 ± 0.1 | W -0.279 ± 0.064 | G -0.048 ± 0.053 | H 0.035 ± 0.13 | S 0.017 ± 0.059 | K -0.07 ± 0.086 | L -0.121 ± 0.049 | T 0.044 ± 0.068 | N 0.089 ± 0.089 | F -0.114 ± 0.087
Y45: V -1.07 ± 0.16 | W -0.065 ± 0.092 | L -0.651 ± 0.098 | N -0.123 ± 0.16 | K -0.712 ± 0.24 | T -0.304 ± 0.14 | Q -0.888 ± 0.17 | R -0.841 ± 0.087
E46: W -0.875 ± 0.11 | V -0.386 ± 0.059 | R -0.137 ± 0.053 | L -0.279 ± 0.052 | G -0.094 ± 0.051 | M -0.21 ± 0.091 | N -0.275 ± 0.16 | C -0.008 ± 0.19 | H -0.047 ± 0.21 | S -0.101 ± 0.054 | A -0.016 ± 0.082 | T -0.13 ± 0.096 | D -0.476 ± 0.26 | Q 0.034 ± 0.1 | F -0.584 ± 0.14 | P -0.16 ± 0.082 | I -0.777 ± 0.25
G52: E -0.949 ± 0.2 | T -0.95 ± 0.19 | A -0.741 ± 0.069 | F -0.246 ± 0.36 | W -1.01 ± 0.17 | P -0.89 ± 0.24 | C -0.631 ± 0.17 | M -0.912 ± 0.13 | R -0.766 ± 0.084 | Y -0.95 ± 0.37 | S -0.457 ± 0.068 | L -0.805 ± 0.089 | D -0.788 ± 0.12 | V -1.05 ± 0.12 | Q -1 ± 0.13 | K -0.438 ± 0.12
R53: Y -0.129 ± 0.093 | T -0.018 ± 0.073 | D 0.048 ± 0.082 | L -0.059 ± 0.04 | Q 0.073 ± 0.065 | I -0.163 ± 0.1 | S -0.084 ± 0.057 | W -0.257 ± 0.075 | K 0.005 ± 0.076 | P -0.169 ± 0.069 | A -0.039 ± 0.045 | G -0.039 ± 0.03 | C -0.064 ± 0.082 | N -0.168 ± 0.12 | F -0.055 ± 0.072 | E 0.036 ± 0.06 | V -0.018 ± 0.038 | H -0.036 ± 0.1
K64: R -0.146 ± 0.11 | H -0.372 ± 0.29 | Q -0.063 ± 0.3 | V 0.002 ± 0.12 | P -0.215 ± 0.15 | I -0.368 ± 0.35 | Y -0.026 ± 0.29 | A 0.034 ± 0.34 | W -0.24 ± 0.2 | C -0.146 ± 0.16 | L -0.07 ± 0.12 | T -0.164 ± 0.17 | G 0.031 ± 0.13 | D -0.118 ± 0.39
D58: A 0.04 ± 0.12 | S 0.014 ± 0.16 | G 0.031 ± 0.12 | W -0.461 ± 0.17 | Y -0.067 ± 0.22 | E 0.085 ± 0.3 | R 0.04 ± 0.11 | T 0.008 ± 0.2 | F -0.099 ± 0.28 | K 0.012 ± 0.34 | C 0.054 ± 0.29 | P -0.342 ± 0.24 | V 0.023 ± 0.16
N49: M -0.001 ± 0.04 | D 0.004 ± 0.047 | A -0.018 ± 0.029 | V -0.198 ± 0.028 | H -0.004 ± 0.057 | L -0.063 ± 0.028 | E 0.021 ± 0.033 | W 0.004 ± 0.033 | Y -0.044 ± 0.063 | K -0.04 ± 0.045 | R -0.07 ± 0.027 | G 0.011 ± 0.023 | C -0.078 ± 0.049 | F -0.009 ± 0.052 | P -0.591 ± 0.069 | T -0.167 ± 0.047
L57: V 0.045 ± 0.16 | N -0.526 ± 0.38 | R -0.288 ± 0.11 | M 0.17 ± 0.18 | C -0.273 ± 0.33 | F -0.311 ± 0.26 | A -0.039 ± 0.16 | Q -0.491 ± 0.37 | K -0.414 ± 0.45 | P -0.517 ± 0.2 | T -0.078 ± 0.16 | G 0.026 ± 0.12 | S 0.171 ± 0.15
K60: P -0.154 ± 0.18 | G 0.017 ± 0.086 | C 0.021 ± 0.23 | D -0.251 ± 0.49 | A -0.001 ± 0.17 | N 0.111 ± 0.25 | W -0.116 ± 0.17 | Q 0.064 ± 0.28 | S 0.005 ± 0.13 | E -0.049 ± 0.27 | V -0.242 ± 0.18 | M 0.078 ± 0.17 | L -0.035 ± 0.13 | I -0.18 ± 0.33 | R -0.143 ± 0.14
P48: T 0.002 ± 0.081 | Y -0.23 ± 0.12 | H -0.236 ± 0.14 | D -0.038 ± 0.12 | G -0.147 ± 0.058 | F -0.388 ± 0.17 | R -0.067 ± 0.045 | Q -0.011 ± 0.097 | C -0.129 ± 0.13 | L -0.32 ± 0.056 | S -0.1 ± 0.066 | I -0.23 ± 0.092 | W -0.712 ± 0.12 | N -0.096 ± 0.17 | V -0.104 ± 0.049 | M -0.193 ± 0.099 | E -0.068 ± 0.089 | A -0.027 ± 0.062 | K 0.006 ± 0.089
I66: Q 0.185 ± 0.46 | C 0.131 ± 0.18 | M -0.022 ± 0.45 | R 0.03 ± 0.2 | E 0.007 ± 0.16 | K -0.432 ± 0.28 | L -0.008 ± 0.13 | S 0.061 ± 0.46 | A -0.032 ± 0.18 | G -0.074 ± 0.083 | W 0.011 ± 0.19 | T -0.047 ± 0.22 | Y -0.2 ± 0.36
Y50: P -1.14 ± 0.11 | L -0.351 ± 0.03 | E -0.559 ± 0.03 | K -0.884 ± 0.09 | M -0.072 ± 0.045 | F -0.002 ± 0.045 | I -0.851 ± 0.12 | W -0.036 ± 0.041 | Q -0.356 ± 0.047 | S -0.705 ± 0.041 | H -0.102 ± 0.051 | T -0.949 ± 0.081 | A -0.576 ± 0.03 | V -1.02 ± 0.056 | C -0.047 ± 0.047 | R -0.685 ± 0.033 | N -0.567 ± 0.087 | D -0.823 ± 0.077 | G -0.421 ± 0.028
L56: C -0.136 ± 0.42 | W 0.047 ± 0.14 | F 0.04 ± 0.26 | R 0.191 ± 0.27 | K -0.161 ± 0.43 | M -0.228 ± 0.35 | P 0.166 ± 0.36 | T -0.04 ± 0.42 | S -0.031 ± 0.17 | E 0.115 ± 0.2 | Q -0.052 ± 0.17 | D 0.309 ± 0.29 | V -0.133 ± 0.44 | G 0.064 ± 0.17
L47: T -0.285 ± 0.1 | N -0.203 ± 0.22 | A -0.047 ± 0.068 | W -0.078 ± 0.049 | E -0.004 ± 0.062 | H 0.065 ± 0.11 | I -0.436 ± 0.11 | Q -0.113 ± 0.12 | P -0.909 ± 0.26 | G -0.051 ± 0.037 | V -0.667 ± 0.071 | C -0.022 ± 0.11 | K 0 ± 0.099 | F 0.046 ± 0.083 | M 0.07 ± 0.094 | R 0.011 ± 0.042 | D -0.093 ± 0.18 | S -0.056 ± 0.073 | Y 0.019 ± 0.15
